T1: human PTK7, full length, on the cell surface (human, UniProt Q13308 31-1070)
T1 construct: also called CCK4; protein tyrosine kinase 7
T1 sequence: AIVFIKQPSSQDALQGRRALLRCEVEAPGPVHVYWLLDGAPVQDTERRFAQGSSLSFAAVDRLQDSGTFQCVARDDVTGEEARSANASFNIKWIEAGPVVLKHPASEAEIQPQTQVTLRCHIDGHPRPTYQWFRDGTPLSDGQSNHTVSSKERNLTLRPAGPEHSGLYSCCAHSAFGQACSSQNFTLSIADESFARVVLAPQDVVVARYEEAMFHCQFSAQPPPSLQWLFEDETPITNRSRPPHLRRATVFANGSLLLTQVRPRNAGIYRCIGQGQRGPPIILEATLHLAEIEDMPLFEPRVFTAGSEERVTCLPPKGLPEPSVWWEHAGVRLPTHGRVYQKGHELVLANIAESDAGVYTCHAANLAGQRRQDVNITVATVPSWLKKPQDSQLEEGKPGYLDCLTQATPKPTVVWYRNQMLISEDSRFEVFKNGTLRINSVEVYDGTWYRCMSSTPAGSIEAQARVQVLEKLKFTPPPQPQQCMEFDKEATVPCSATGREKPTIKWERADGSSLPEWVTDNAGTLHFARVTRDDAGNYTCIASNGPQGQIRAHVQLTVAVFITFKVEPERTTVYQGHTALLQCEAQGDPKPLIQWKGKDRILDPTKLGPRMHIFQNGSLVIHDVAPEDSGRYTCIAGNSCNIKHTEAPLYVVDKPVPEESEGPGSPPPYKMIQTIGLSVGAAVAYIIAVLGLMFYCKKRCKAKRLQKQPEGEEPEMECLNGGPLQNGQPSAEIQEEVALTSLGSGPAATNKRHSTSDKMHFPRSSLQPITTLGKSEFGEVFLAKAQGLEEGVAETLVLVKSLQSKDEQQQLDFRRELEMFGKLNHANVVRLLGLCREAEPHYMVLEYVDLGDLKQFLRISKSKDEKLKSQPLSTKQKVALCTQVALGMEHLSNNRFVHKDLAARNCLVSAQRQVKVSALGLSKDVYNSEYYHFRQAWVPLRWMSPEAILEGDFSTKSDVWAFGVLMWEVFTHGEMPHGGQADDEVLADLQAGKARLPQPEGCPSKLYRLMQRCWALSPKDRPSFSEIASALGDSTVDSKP

T2: recombinant extracellular domain of PTK7 (human, UniProt Q13308 31-704)
T2 construct: also called PTK7 extracellular domain
T2 sequence: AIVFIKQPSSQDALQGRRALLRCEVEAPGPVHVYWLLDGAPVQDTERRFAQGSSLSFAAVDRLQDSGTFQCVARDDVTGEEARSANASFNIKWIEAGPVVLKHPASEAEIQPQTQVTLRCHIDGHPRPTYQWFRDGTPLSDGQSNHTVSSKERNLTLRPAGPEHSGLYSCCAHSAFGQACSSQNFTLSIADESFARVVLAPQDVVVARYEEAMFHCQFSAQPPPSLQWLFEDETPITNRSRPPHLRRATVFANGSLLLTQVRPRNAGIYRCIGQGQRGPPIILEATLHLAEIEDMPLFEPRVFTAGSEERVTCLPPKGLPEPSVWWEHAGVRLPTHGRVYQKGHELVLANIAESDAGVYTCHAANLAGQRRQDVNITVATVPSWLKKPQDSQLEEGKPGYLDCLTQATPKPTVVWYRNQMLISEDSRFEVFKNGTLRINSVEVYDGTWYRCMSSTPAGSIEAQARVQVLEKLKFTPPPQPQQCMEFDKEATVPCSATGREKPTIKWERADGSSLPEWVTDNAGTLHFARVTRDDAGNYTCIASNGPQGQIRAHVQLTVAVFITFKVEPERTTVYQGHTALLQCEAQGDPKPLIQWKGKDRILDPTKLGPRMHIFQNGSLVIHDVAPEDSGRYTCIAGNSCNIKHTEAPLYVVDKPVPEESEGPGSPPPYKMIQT


Tests used:
[1] = molecular target: T1, human PTK7, full length, on the cell …; assay: flow cytometry (MFI) on Wilms' tumor cell line G-401
Procedure: The nephroblastoma Wilms' tumor cell line G-401 (ATCC Acc No. CRL-1441) was tested for binding of the HuMAb anti-PTK7 human monoclonal antibodies 12C6 and 7C8 at different concentrations. Binding of the anti-PTK7 human monoclonal antibodies was assessed by incubating 1×10⁵ cells with antibody at a starting concentration of 30 μg/ml and serially diluting the antibody at a 1:10 dilution. The cells were washed and binding was detected with a PE-labeled anti-human IgG Ab. Flow cytometric analyses were performed using a FACScan flow cytometry (Becton Dickinson, San Jose, Calif.). The anti-PTK7 monoclonal antibodies 12C6 and 7C8 bound to the nephroblastoma Wilms' tumor cell line in a concentration dependent manner, as measured by the mean fluorescent intensity (MFI) of staining. The EC₅₀ values for the anti-PTK7 monoclonal antibodies 12C6 and 7C8 was 4.0 nM and 3.4 nM, respectively.

[2] = molecular target: T1, human PTK7, full length, on the cell …; assay: cell-based or functional assay
[3] = molecular target: T1, human PTK7, full length, on the cell …; assay: flow cytometry (MFI) on cancer cell lines that express cell surface PTK7, antibody at 10 ug/ml
Procedure: Anti-PTK7 antibodies were tested for binding to a variety of cancer cell lines by flow cytometry.
Binding of the 3G8, 12C6a, 4D5 and 12C6 anti-PTK7 human monoclonal antibodies to a panel of cancer cell lines was assessed by incubating cancer cell lines with anti-PTK7 human monoclonal antibodies at a concentration of 10 μg/ml. The cancer cell lines that were tested were A-431 (ATCC Acc No. CRL-1555), Wilms tumor cells G-401 (ATCC Acc No. CRL-1441), Saos-2 (ATCC Acc No. HTB-85), SKOV-3 (ATCC Acc No. HTB-77), PC3 (ATCC Acc No. CRL-1435), DMS 114 (ATCC Acc No. CRL-2066), ACHN (ATCC Ace No. CRL-1611), LNCaP (ATCC Acc No. CRL-1740), DU 145 (ATCC Acc No. HTB-81), LoVo (ATCC Acc No. CCL-229) and MIA PaCa-2 (ATCC Acc No. CRL-1420). An isotype control antibody was used as a negative control. The cells were washed and binding was detected with a FITC-labeled anti-human IgG Ab. Flow cytometric analyses were performed using a FACScan flow cytometry (Becton Dickinson, San Jose, Calif.). The anti-PTK7 monoclonal antibodies 3G8, 12C6a, 4D5 and 12C6 bound to the cancer cell lines A-431, Wilms tumor cells G-401, Saos-2, SKOV-3, PC3, DMS 114, ACHN, LNCaP, DU 145, LoVo and MIA PaCa-2, as measured by the mean fluorescent intensity (MFI) of staining.

[4] = molecular target: T2, recombinant extracellular domain of PTK7; assay: ELISA (legend of FIG. 15; members named in paragraph 547)
Procedure: The binding of anti-PTK7 antibodies was also assessed by standard ELISA to examine the specificity of binding for PTK7.
Recombinant extracellular domain of PTK7 was tested for binding against the anti-PTK7 human monoclonal antibodies 3G8, 4D5, 12C6 and 12C6a at different concentrations. Standard ELISA procedures were performed. The anti-PTK7 human monoclonal antibodies were added at a starting concentration of 10 μg/ml and serially diluted at a 1:2 dilution. Goat-anti-human IgG (kappa chain-specific) polyclonal antibody conjugated with horseradish peroxidase (HRP) was used as secondary antibody. Each of the anti-PTK7 human monoclonal antibodies 3G8, 4D5, 12C6 and 12C6a bound to PTK7.

EC50 [1] [nM] | EC50 of the decrease in 3H-thymidine incorporation, Hum-Zap internalization assay, A-431 cells [2] [nM] | EC50 of the decrease in 3H-thymidine incorporation, Hum-Zap internalization assay, PC3 tumor cells [2] [nM] | EC50 of the decrease in 3H-thymidine incorporation, Hum-Zap internalization assay, Wilms' tumor cells G-401 [2] [nM] | binding result [3] | binding result [4] | Binder
3.4 | 0.2 | 0.3 | 0.2 |  |  | anti-PTK7 human monoclonal antibody 7C8 (antibody, V domains shown, Human IgG kappa from a hybridoma) VH: QVQLVESGGGVVQPGRSLRLSCAASGFTFSSYGMHWVRQAPGKGLEWVAVIWDDGSNKYYVDSVKGRFTISRDNSKNTLYLQMNSLRAEDTAVYYCARDDYYGSGSFNSYYGTDVWGQGTTVTVSS VL: EIVLTQSPATLSLSPGERATLSCRASQSVSIYLAWYQQKPGQAPRLLIYDASNRATGIPARFSGSGSGTDFTLTISSLEPEDFAVYYCQQRSNWPPFTFGPGTKVDIK
 |  |  | 0.6 |  |  | anti-PTK7 human monoclonal antibody 3G8 (antibody, V domains shown) VH: QVQLVESGGGVVQPGRSLRLSCAASGFIFSNYAMHWVRQAPGKGLEWVAVISYDGNNKYYADSVKGRFTISRDNSKNTLYLQMNSLRAEDTAVYYCAREVWSIDNWGQGTLVTVSS VL: DIQMTQSPSSLSASVGDRVTITCRASQGISSWLAWYQQKPEKAPKSLIYAASSLQSGVPSRFSGSGSGTDFTLTISSLQPEDFATYYCQQYNSYPRTFGQGTKVEIK
 |  |  |  | binds | binds | anti-PTK7 human monoclonal antibody 12C6a (antibody, V domains shown, Same heavy chain variable region as 12C6, different light chain; Human IgG kappa from a hybridoma) VH: EVQLVQSGGGLVHPGGSLRLSCAGSGFTFSTYLMYWVRQAPGKTLEWVSAIGSGGDTYYADSVKGRFTISRDNAKNSLYLQMNSLRAEDMAVYYCARGLGYWGQGTLVTVSS VL: DIQMTQSPSSLSASVGDRVTITCRASQGISSWLAWYQQKPEKAPKSLIYAASSLQSGVPSRFSGSGSGTDFTLTISSLQPEDFATYYCQQYNSYPYTFGQGTKLEIK
 |  |  | 0.3 |  |  | anti-PTK7 human monoclonal antibody 4D5 (antibody, V domains shown) VH: QVQLVESGGGVVQPGRSLRLSCAASGFTFSSYAFHWVRQAPGKGLEWVAVISYDGSIKYYADSVKGRFTISRDNSKNTLYLQMNSLRAEDTAVYYCARTYYFDYWGQGTLVTVSS VL: EIVLTQSPDFQSVTPKEKVTITCRASQSIGSSLHWYQQKPDQSPKLLIKYASQSFSGVPSRFSGSGSGTDFTLTINSLEAEDAAAYYCHQSSSLPITFGQGTRLEIK
4 | 0.2 | 0.3 | 0.2 |  |  | anti-PTK7 human monoclonal antibody 12C6 (antibody, V domains shown, Human IgG kappa from a hybridoma) VH: EVQLVQSGGGLVHPGGSLRLSCAGSGFTFSTYLMYWVRQAPGKTLEWVSAIGSGGDTYYADSVKGRFTISRDNAKNSLYLQMNSLRAEDMAVYYCARGLGYWGQGTLVTVSS VL: not shown

Reference: patent publication US20120027782A1 (Bristol-Myers Squibb, published 2012)
